{"source": "patent US20250197467A1", "about": "(BRIGHT PEAK THERAPEUTICS, published 2025)", "binders": {"B1": {"name": "C187 (ligand)", "chain": "MAAEPVEDNCINFVAMKFIDNTLYFIAEDDENLESDPLGLAGYFGKLKSKLSIIRNLNDQVLFIDQGNRPLFEDMTDSDARDNAPRTIFIISMYADSQPRGMAVAISVKCEKISTLSAENKIISFKEMNPPDNIKDTKSDIIFFQRSVPGHDNKMQFESSSYEGYFLAAEKERDLFKLILKKEDELGDRSIMFTVQNED"}, "B2": {"name": "C172 (ligand)", "chain": "YFGKLKSKLSIIRNLNDQVLFIDQGNRPLFEDMTDSDARDNAPRTIFIISMYADSQPRGMAVAISVKCEKISTLSAENKIISFKEMNPPDNIKDTKSDIIFFQRSVPGHDNKMQFESSSYEGYFLAAEKERDLFKLILKKEDELGDRSIMFTVQNESGGPGPAGMKGLPGSNIVPVLLGPKLNHVAVELGKNVRLNCSALLNEEDVIYWMFGEENGSDPNIHEEKEMRIMTPEGKWHASKVLRIENIGESNLNVLYNCTVASTGGTDTKSFILVRKADHHHHHH"}, "B3": {"name": "C189 (ligand)", "chain": "B2 chain with N196D, N215D, N257D"}, "B4": {"name": "C191 (ligand)", "chain": "YFGKLKSKLSIIRNLNDQVLFIDQGNRPLFEDMTDSDARDNAPRTIFIISMYADSQPRGMAVAISVKCEKISTLSAENKIISFKEMNPPDNIKDTKSDIIFFQRSVPGHDNKMQFESSSYEGYFLAAEKERDLFKLILKKEDELGDRSIMFTVQNESGGPLGLAGGSNIVPVLLGPKLNHVAVELGKNVRLNCSALLNEEDVIYWMFGEENGSDPNIHEEKEMRIMTPEGKWHASKVLRIENIGESNLNVLYNCTVASTGGTDTKSFILVRKADHHHHHH"}, "B5": {"name": "C136 (ligand)", "chain": "YFGKLKSKLSIIRNLNDQVLFIDQGNRPLFEDMTDSDARDNAPRTIFIISMYADSQPRGMAVAISVKCEKISTLSAENKIISFKEMNPPDNIKDTKSDIIFFQRSVPGHDNKMQFESSSYEGYFLAAEKERDLFKLILKKEDELGDRSIMFTVQNEGGSGGSNIVPVLLGPKLNHVAVELGKNVRLNCSALLNEEDVIYWMFGEENGSDPNIHEEKEMRIMTPEGKWHASKVLRIENIGESNLNVLYNCTVASTGGTDTKSFILVRKADHHHHHH"}, "B6": {"name": "C137 (ligand)", "chain": "B2 chain with S157G, P160G, G161S, P162G, A163G, M165G, K166S, L168G, P169G"}, "B7": {"name": "C086 (SEQ ID NO: 30) (ligand)", "chain": "YFGKLKSKLSIIRNLNDQVLFIDQGNRPLFEDMTDSDARDNAPRTIFIISMYADSQPRGMAVAISVKCEKISTLSAENKIISFKEMNPPDNIKDTKSDIIFFQRSVPGHDNKMQFESSSYEGYFLAAEKERDLFKLILKKEDELGDRSIMFTVQNED"}, "B8": {"name": "C185 (ligand)", "chain": "MAAEPVEDNCINFVAMKFIDNTLYFIAEDDENLESDPLGYFGKLKSKLSIIRNLNDQVLFIDQGNRPLFEDMTDSDARDNAPRTIFIISMYADSQPRGMAVAISVKCEKISTLSAENKIISFKEMNPPDNIKDTKSDIIFFQRSVPGHDNKMQFESSSYEGYFLAAEKERDLFKLILKKEDELGDRSIMFTVQNED"}, "B9": {"name": "C190 (ligand)", "chain": "MAAEPVEDNCINFVAMKFIDNTLYFIAEDDENLESDYFGKLKSKLSIIRNLNDQVLFIDQGNRPLFEDMTDSDARDNAPRTIFIISMYADSQPRGMAVAISVKCEKISTLSAENKIISFKEMNPPDNIKDTKSDIIFFQRSVPGHDNKMQFESSSYEGYFLAAEKERDLFKLILKKEDELGDRSIMFTVQNED"}, "B10": {"name": "C190 + MMP9 (ligand)", "chain": "B9 chain"}, "B11": {"name": "C127 (ligand)", "chain": "MAAEPVEDNCINFVAMKFIDNTLYFIAEDDENLESDSGGPGPAGMKGLPGSYFGKLKSKLSIIRNLNDQVLFIDQGNRPLFEDMTDSDARDNAPRTIFIISMYADSQPRGMAVAISVKCEKISTLSAENKIISFKEMNPPDNIKDTKSDIIFFQRSVPGHDNKMQFESSSYEGYFLAAEKERDLFKLILKKEDELGDRSIMFTVQNED"}}, "note": "Residue numbers refer to the chain shown, from its start."}
{"molecular_target": "T1, IL-18 receptor (IL-18Rαβ) on cells (UniProt Q13478 19-541; O95256 20-599, limits assumed)", "T1 sequence (looked up) 1": "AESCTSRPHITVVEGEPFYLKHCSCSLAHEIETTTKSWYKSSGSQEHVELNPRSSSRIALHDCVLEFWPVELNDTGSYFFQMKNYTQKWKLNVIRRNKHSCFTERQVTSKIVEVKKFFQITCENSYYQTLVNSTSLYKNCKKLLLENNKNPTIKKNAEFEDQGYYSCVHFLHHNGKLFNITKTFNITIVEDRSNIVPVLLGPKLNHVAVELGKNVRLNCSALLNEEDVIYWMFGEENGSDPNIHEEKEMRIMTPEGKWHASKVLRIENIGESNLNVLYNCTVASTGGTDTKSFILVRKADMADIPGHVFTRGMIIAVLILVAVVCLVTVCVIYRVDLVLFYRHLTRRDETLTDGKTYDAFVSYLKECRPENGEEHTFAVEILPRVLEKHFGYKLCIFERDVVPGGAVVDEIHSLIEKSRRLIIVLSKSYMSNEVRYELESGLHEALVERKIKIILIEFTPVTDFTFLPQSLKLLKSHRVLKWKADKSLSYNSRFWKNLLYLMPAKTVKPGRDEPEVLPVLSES", "T1 sequence (looked up) 2": "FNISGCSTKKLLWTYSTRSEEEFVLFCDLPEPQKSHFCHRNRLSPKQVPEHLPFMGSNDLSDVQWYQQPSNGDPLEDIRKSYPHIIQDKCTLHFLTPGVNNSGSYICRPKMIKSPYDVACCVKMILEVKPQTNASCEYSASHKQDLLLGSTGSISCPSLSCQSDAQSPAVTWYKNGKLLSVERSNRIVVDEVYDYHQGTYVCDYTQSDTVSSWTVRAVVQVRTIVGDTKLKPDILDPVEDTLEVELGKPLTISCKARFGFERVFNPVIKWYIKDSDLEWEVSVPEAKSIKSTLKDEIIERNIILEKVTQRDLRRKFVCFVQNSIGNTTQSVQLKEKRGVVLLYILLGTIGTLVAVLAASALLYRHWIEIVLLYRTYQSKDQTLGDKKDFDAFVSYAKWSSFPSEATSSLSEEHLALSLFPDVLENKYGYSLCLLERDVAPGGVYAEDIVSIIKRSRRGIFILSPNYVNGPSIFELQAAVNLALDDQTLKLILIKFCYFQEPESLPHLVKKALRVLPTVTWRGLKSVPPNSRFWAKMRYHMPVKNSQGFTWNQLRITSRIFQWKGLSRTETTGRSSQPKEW", "assay": "cell-based or functional assay", "units": {"Fold potency loss vs C086": "fold", "HEK-blue EC50": "nM"}}
{"binder": "B1", "Fold potency loss vs C086": 29400, "HEK-blue EC50": 1240}
{"binder": "B2", "Fold potency loss vs C086": 26, "HEK-blue EC50": 1.09}
{"binder": "B3", "Fold potency loss vs C086": 10, "HEK-blue EC50": 0.43}
{"binder": "B4", "Fold potency loss vs C086": 48, "HEK-blue EC50": 2.02}
{"binder": "B5", "Fold potency loss vs C086": 21, "HEK-blue EC50": 0.884}
{"binder": "B6", "Fold potency loss vs C086": 49, "HEK-blue EC50": 2.08}
{"binder": "B7", "HEK-blue EC50": 0.04}
{"binder": "B8", "Fold potency loss vs C086": 60900, "HEK-blue EC50": 2560}
{"binder": "B9", "HEK-blue EC50": 404}
{"binder": "B10", "HEK-blue EC50": 198}
{"binder": "B11", "Fold potency loss vs C086": 7000, "HEK-blue EC50": 295}
{"molecular_target": "T1, IL-18 receptor (IL-18Rαβ) on cells", "assay": "cell-based or functional assay", "remark": "another data set of the same source", "units": {"IFNγ release NK-92 assay EC50": "nM"}}
{"binder": "B7", "IFNγ release NK-92 assay EC50": 0.0018}
{"binder": "B8", "IFNγ release NK-92 assay EC50": 210}
{"molecular_target": "T1, IL-18 receptor (IL-18Rαβ) on cells", "assay": "cell-based or functional assay", "remark": "another data set of the same source", "units": {"Hek Blue reporter assay EC50": "pM"}}
{"binder": "B1", "Hek Blue reporter assay EC50": 1240}
{"binder": "B2", "Hek Blue reporter assay EC50": 1.09}
{"binder": "B3", "Hek Blue reporter assay EC50": 0.43}
{"binder": "B4", "Hek Blue reporter assay EC50": 2.02}
{"binder": "B5", "Hek Blue reporter assay EC50": 0.884}
{"binder": "B6", "Hek Blue reporter assay EC50": 2.08}
{"binder": "B7", "Hek Blue reporter assay EC50": 0.057}
{"binder": "B8", "Hek Blue reporter assay EC50": 2790}
{"binder": "B9", "Hek Blue reporter assay EC50": 404}
{"binder": "B10", "Hek Blue reporter assay EC50": 198}
{"binder": "B11", "Hek Blue reporter assay EC50": 295}
{"molecular_target": "T1, IL-18 receptor (IL-18Rαβ) on cells", "assay": "cell-based or functional assay", "remark": "another data set of the same source", "units": {"IFNg release PBMCs assay EC50": "nM"}}
{"binder": "B7", "IFNg release PBMCs assay EC50": 0.0022}
{"molecular_target": "T1, IL-18 receptor (IL-18Rαβ) on cells", "assay": "cell-based or functional assay", "remark": "another data set of the same source", "units": {"HEK-Blue IL-18R reporter EC50": "pM"}}
{"binder": "B7", "HEK-Blue IL-18R reporter EC50": 0.034}
{"molecular_target": "T2, IL-18 receptor alpha subunit (Biotinylated for capture on streptavidin (SAX2) biosensors. The site and tag are not given in the patent.)", "T2 construct": "also called IL18 receptor alpha (Acro, IL1-H82E7); IL-18Ra", "T2 chain": "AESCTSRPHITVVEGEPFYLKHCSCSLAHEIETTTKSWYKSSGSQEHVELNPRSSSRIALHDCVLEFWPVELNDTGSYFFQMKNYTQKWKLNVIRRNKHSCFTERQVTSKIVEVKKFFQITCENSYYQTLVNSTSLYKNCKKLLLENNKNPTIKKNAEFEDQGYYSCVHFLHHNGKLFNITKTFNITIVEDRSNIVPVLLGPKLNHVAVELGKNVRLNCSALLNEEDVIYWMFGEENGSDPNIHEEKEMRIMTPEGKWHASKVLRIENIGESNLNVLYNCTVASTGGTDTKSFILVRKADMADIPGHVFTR", "assay": "BLI (Octet R8), IL-18 receptor alpha on streptavidin (SAX2) biosensor, analyte 1000 nM to 1.25 nM in 1:3 dilutions", "from_the_text": "Act-IL18 candidates C185, C314, and C315 were digested as described above and characterized by BLI. Briefly, undigested and digested samples were compared for their binding against IL18 receptor on an Octet R8 (Sartorius)."}
{"binder": "B8", "binding result": "no binding"}
